For the test, the target named is ΔEed (Eed residues 77 to 441) (UniProt O75530). Put plainly: ITC; ΔEed (residues 77 to 441) with methylated peptides; conditions in the Supplemental Experimental Procedures.

The text below walks through data of article PMC4352895, “Jarid2 Methylation via the PRC2 Complex Regulates H3K27me3 Deposition during Cell Differentiation” (Molecular Cell, 2015).

pKd: −log10 of the molar value.

Chain of ΔEed (Eed residues 77 to 441) (O75530 77-441, stated change not applied): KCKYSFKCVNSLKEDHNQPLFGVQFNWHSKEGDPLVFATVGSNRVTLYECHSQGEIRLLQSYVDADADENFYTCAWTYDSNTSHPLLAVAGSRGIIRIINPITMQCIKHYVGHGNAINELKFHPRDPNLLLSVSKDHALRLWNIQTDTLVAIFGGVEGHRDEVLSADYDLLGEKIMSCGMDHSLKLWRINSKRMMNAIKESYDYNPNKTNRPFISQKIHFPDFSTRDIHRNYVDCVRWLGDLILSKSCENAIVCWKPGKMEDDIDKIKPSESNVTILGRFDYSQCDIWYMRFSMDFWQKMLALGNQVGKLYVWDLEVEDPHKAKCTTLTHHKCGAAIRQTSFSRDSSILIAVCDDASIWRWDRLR

As for Jarid2-K116me3 peptide, the pKd was 5.52 and the fold affinity against the H3K27me3 peptide is 10 fold.
